T1: human IL-12 (human, UniProt P29459 23-219; P29460 23-328)
T1 construct: recombinant human IL-12 heterodimer (p35/p40, disulfide-linked); also called hIL-12; rhIL-12
T1 sequence (looked up) 1: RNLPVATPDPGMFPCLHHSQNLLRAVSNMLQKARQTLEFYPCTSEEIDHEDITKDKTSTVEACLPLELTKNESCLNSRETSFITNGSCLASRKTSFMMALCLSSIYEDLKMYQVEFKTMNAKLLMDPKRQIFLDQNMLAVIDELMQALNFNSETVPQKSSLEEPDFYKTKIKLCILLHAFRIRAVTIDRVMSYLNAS
T1 sequence (looked up) 2: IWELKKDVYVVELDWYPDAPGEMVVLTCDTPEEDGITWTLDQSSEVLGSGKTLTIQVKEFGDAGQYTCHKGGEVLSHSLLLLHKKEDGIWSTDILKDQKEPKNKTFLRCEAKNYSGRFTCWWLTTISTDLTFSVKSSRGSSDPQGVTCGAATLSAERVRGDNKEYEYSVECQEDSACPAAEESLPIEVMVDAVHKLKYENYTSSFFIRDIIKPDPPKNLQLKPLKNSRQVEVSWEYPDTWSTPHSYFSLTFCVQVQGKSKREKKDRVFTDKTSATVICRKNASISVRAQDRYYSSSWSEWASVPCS

T2: recombinant human IL-12 (rhIL-12) (human, UniProt P29459 23-219; P29460 23-328)
T2 construct: disulfide-linked p35/p40 heterodimer (p70); also called IL-12 p70; rec. human IL12
T2 sequence (looked up) 1: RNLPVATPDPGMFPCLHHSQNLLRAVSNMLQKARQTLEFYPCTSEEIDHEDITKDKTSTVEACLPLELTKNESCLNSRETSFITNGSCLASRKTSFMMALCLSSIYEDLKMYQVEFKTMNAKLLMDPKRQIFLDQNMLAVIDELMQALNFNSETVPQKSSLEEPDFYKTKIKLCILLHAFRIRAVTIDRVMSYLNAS
T2 sequence (looked up) 2: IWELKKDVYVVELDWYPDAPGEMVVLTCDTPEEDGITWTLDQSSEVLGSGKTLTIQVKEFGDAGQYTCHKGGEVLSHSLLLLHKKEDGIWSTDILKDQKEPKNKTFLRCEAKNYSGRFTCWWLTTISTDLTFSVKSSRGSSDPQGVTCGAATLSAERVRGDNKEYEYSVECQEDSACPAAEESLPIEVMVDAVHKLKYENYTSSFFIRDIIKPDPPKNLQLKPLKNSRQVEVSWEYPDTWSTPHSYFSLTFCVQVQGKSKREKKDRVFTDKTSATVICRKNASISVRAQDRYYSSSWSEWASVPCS


These binders were tested against T1, human IL-12 (assay: SPR (BIAcore), IL-12 chip).
Text: The system utilizes the optical properties of SPR to detect alterations in protein concentrations within a dextran biosensor matrix. Proteins are covalently bound to the dextran matrix at known concentrations. […] To determine the off rate (koff), on rate (kₒₙ), association rate (Ka) and dissociation rate (Kd) constants, BIAcore kinetic evaluation software (version 2.1) was used.

koff [s⁻¹] | Binder
0.00604 | B10 (scFv, V domains shown, scFv) VH: QVQLVQSGGGVVQPGRSLRLSCAASGFTFSSYGMHWVRQAPGKGLEWVAFIRYDGSNKYYADSVKGRFTISRDNSKNTLYLQMKSLRAEDTAVYYCKTHGSHDNWGQGTMVTVSS VL: SYVLTQPPSVSGTPGQRVTISCSGGRSNIGSNTVKWYQQLPGTAPKLLIYGNDQRPSGVPDRFSGSKSGTSASLAITGVQAEDEADYYCQSYDRGLSDSPLFGTGTKVTVL
0.00391 | C5 (scFv, V domains shown, scFv) VH: QVQLVQSGGGVVQPGRSLRLSCAASGFTFSSYGMHWVRQAPGKGLEWVAFIRYDGSNKYYADSVKGRFTISRDNSKNTLYLQMKSLRAEDTAVYYCKTHGSHDNWGQGTMVTVSS VL: SYVLTQPPSVSGTPGQRVTISCSGGRSNIGSNTVKWYQQLPGTAPKLLIYGNDQRPSGVPDRFSGSKSGTSASLAITGVQAEDEADYYCQSYDRGPHTQPTFGTGTKVTVL
0.00849 | M2 A4 (scFv, V domains shown, scFv) VH: QVQLVQSGGGVVQPGRSLRLSCAASGFTFSSYGMHWVRQAPGKGLEWVAFIRYDGSNKYYADSVKGRFTISRDNSKNTLYLQMKSLRAEDTAVYYCKTHGSHDNWGQGTMVTVSS VL: SYVLTQPPSVSGTPGQRVTISCSGGRSNIGSNTVKWYQQLPGTAPKLLIYGNDQRPSGVPDRFSGSKSGTSASLAITGVQAEDEADYYCQSYDSGFPGSRVFGTGTKVTVL
0.00583 | C7 (scFv, V domains shown, scFv) VH: QVQLVQSGGGVVQPGRSLRLSCAASGFTFSSYGMHWVRQAPGKGLEWVAFIRYDGSNKYYADSVKGRFTISRDNSKNTLYLQMKSLRAEDTAVYYCKTHGSHDNWGQGTMVTVSS VL: SYVLTQPPSVSGTPGQRVTISCSGGRSNIGSNTVKWYQQLPGTAPKLLIYGNDQRPSGVPDRFSGSKSGTSASLAITGVQAEDEADYYCQSYDRGIPTSYLFGTGTKVTVL
0.00334 | C3 (scFv, V domains shown, scFv) VH: QVQLVQSGGGVVQPGRSLRLSCAASGFTFSSYGMHWVRQAPGKGLEWVAFIRYDGSNKYYADSVKGRFTISRDNSKNTLYLQMKSLRAEDTAVYYCKTHGSHDNWGQGTMVTVSS VL: SYVLTQPPSVSGTPGQRVTISCSGGRSNIGSNTVKWYQQLPGTAPKLLIYGNDQRPSGVPDRFSGSKSGTSASLAITGVQAEDEADYYCQSYDSGVDPGPYFGTGTKVTVL
0.00585 | C12 (scFv, V domains shown, scFv) VH: QVQLVQSGGGVVQPGRSLRLSCAASGFTFSSYGMHWVRQAPGKGLEWVAFIRYDGSNKYYADSVKGRFTISRDNSKNTLYLQMKSLRAEDTAVYYCKTHGSHDNWGQGTMVTVSS VL: SYVLTQPPSVSGTPGQRVTISCSGGRSNIGSNTVKWYQQLPGTAPKLLIYGNDQRPSGVPDRFSGSKSGTSASLAITGVQAEDEADYYCQSYDRGLRVQAPFGTGTKVTVL
0.00397 | C9 (scFv, V domains shown, scFv) VH: QVQLVQSGGGVVQPGRSLRLSCAASGFTFSSYGMHWVRQAPGKGLEWVAFIRYDGSNKYYADSVKGRFTISRDNSKNTLYLQMKSLRAEDTAVYYCKTHGSHDNWGQGTMVTVSS VL: SYVLTQPPSVSGTPGQRVTISCSGGRSNIGSNTVKWYQQLPGTAPKLLIYGNDQRPSGVPDRFSGSKSGTSASLAITGVQAEDEADYYCQSYDRGPTHLPHFGTGTKVTVL
0.00536 | C8 (scFv, V domains shown, scFv) VH: QVQLVQSGGGVVQPGRSLRLSCAASGFTFSSYGMHWVRQAPGKGLEWVAFIRYDGSNKYYADSVKGRFTISRDNSKNTLYLQMKSLRAEDTAVYYCKTHGSHDNWGQGTMVTVSS VL: SYVLTQPPSVSGTPGQRVTISCSGGRSNIGSNTVKWYQQLPGTAPKLLIYGNDQRPSGVPDRFSGSKSGTSASLAITGVQAEDEADYYCQSYDSGTSNLLPFGTGTKVTVL
0.00295 | B11 (scFv, V domains shown, scFv) VH: QVQLVQSGGGVVQPGRSLRLSCAASGFTFSSYGMHWVRQAPGKGLEWVAFIRYDGSNKYYADSVKGRFTISRDNSKNTLYLQMKSLRAEDTAVYYCKTHGSHDNWGQGTMVTVSS VL: SYVLTQPPSVSGTPGQRVTISCSGGRSNIGSNTVKWYQQLPGTAPKLLIYGNDQRPSGVPDRFSGSKSGTSASLAITGVQAEDEADYYCQSYDRGITPGLAFGTGTKVTVL
0.0462 | M2 C3 (scFv, V domains shown, scFv) VH: QVQLVQSGGGVVQPGRSLRLSCAASGFTFSSYGMHWVRQAPGKGLEWVAFIRYDGSNKYYADSVKGRFTISRDNSKNTLYLQMKSLRAEDTAVYYCKTHGSHDNWGQGTMVTVSS VL: SYVLTQPPSVSGTPGQRVTISCSGGRSNIGSNTVKWYQQLPGTAPKLLIYGNDQRPSGVPDRFSGSKSGTSASLAITGVQAEDEADYYCQSYDTGLTGSRVFGTGTKVTVL
0.00242 | C6 (scFv, V domains shown, scFv) VH: QVQLVQSGGGVVQPGRSLRLSCAASGFTFSSYGMHWVRQAPGKGLEWVAFIRYDGSNKYYADSVKGRFTISRDNSKNTLYLQMKSLRAEDTAVYYCKTHGSHDNWGQGTMVTVSS VL: SYVLTQPPSVSGTPGQRVTISCSGGRSNIGSNTVKWYQQLPGTAPKLLIYGNDQRPSGVPDRFSGSKSGTSASLAITGVQAEDEADYYCQSYDRGQTPSITFGTGTKVTVL
0.0442 | M2 B4 (scFv, V domains shown, scFv) VH: QVQLVQSGGGVVQPGRSLRLSCAASGFTFSSYGMHWVRQAPGKGLEWVAFIRYDGSNKYYADSVKGRFTISRDNSKNTLYLQMKSLRAEDTAVYYCKTHGSHDNWGQGTMVTVSS VL: SYVLTQPPSVSGTPGQRVTISCSGGRSNIGSNTVKWYQQLPGTAPKLLIYGNDQRPSGVPDRFSGSKSGTSASLAITGVQAEDEADYYCQSYDIGLTGSRVFGTGTKVTVL

The binders below were run against T2, recombinant human IL-12 (rhIL-12) (assay: BIAcore SPR, IL-12 on chip).

koff [s⁻¹] | Binder
0.0054 | 99-E9 (scFv, V domains shown, scFv clone) VH: QVQLVQSGGGVVQPGRSLRLSCAASGFTFSSYGMHWVRQAPGKGLEWVAFIRYDGSNKYYADSVKGRFTISRDNSKNTLYLQMKSLRAEDTAVYYCKTHGSHDNWGQGTMVTVSS VL: SYVLTQPPSVSGTPGQRVTISCSGGRSNIGSNTVKWYQQLPGTAPKLLIYGNDQRPSGVPDRFSGSKSGTSASLAITGVQAEDEADYYCQSYDSGFTGSRVFGTGTKVTVL
0.0043 | 99-G11 (scFv, V domains shown, scFv clone) VH: QVQLVQSGGGVVQPGRSLRLSCAASGFTFSSYGMHWVRQAPGKGLEWVAFIRYDGSNKYYADSVKGRFTISRDNSKNTLYLQMKSLRAEDTAVYYCKTHGSHDNWGQGTMVTVSS VL: SYVLTQPPSVSGTPGQRVTISCSGGRSNIGSNTVKWYQQLPGTAPKLLIYGNDQRPSGVPDRFSGSKSGTSASLAITGVQAEDEADYYCQSYDSRFTGSRVFGTGTKVTVL
0.0054 | 99-B11 (scFv, V domains shown, scFv clone) VH: QVQLVQSGGGVVQPGRSLRLSCAASGFTFSSYGMHWVRQAPGKGLEWVAFIRYDGSNKYYADSVKGRFTISRDNSKNTLYLQMKSLRAEDTAVYYCKTHGSHDNWGQGTMVTVSS VL: SYVLTQPPSVSGTPGQRVTISCSGGRSNIGSNTVKWYQQLPGTAPKLLIYGNDQRPSGVPDRFSGSKSGTSASLAITGVQAEDEADYYCQSYDSGYTGSRVFGTGTKVTVL
0.0057 | 99-C11 (scFv, V domains shown, scFv clone) VH: QVQLVQSGGGVVQPGRSLRLSCAASGFTFSSYGMHWVRQAPGKGLEWVAFIRYDGSNKYYADSVKGRFTISRDNSKNTLYLQMKSLRAEDTAVYYCKTHGSHDNWGQGTMVTVSS VL: SYVLTQPPSVSGTPGQRVTISCSGGRSNIGSNTVKWYQQLPGTAPKLLIYGNDQRPSGVPDRFSGSKSGTSASLAITGVQAEDEADYYCQSYDSGFTGSRVFGTGTKVTVL
0.0048 | 99-G7 (scFv, V domains shown, scFv clone) VH: QVQLVQSGGGVVQPGRSLRLSCAASGFTFSSYGMHWVRQAPGKGLEWVAFIRYDGSNKYYADSVKGRFTISRDNSKNTLYLQMKSLRAEDTAVYYCKTHGSHDNWGQGTMVTVSS VL: SYVLTQPPSVSGTPGQRVTISCSGGRSNIGSNTVKWYQQLPGTAPKLLIYGNDQRPSGVPDRFSGSKSGTSASLAITGVQAEDEADYYCQSYLKSRAFSRVFGTGTKVTVL
0.0054 | 99-F11 (scFv, V domains shown, scFv clone) VH: QVQLVQSGGGVVQPGRSLRLSCAASGFTFSSYGMHWVRQAPGKGLEWVAFIRYDGSNKYYADSVKGRFTISRDNSKNTLYLQMKSLRAEDTAVYYCKTHGSHDNWGQGTMVTVSS VL: SYVLTQPPSVSGTPGQRVTISCSGGRSNIGSNTVKWYQQLPGTAPKLLIYGNDQRPSGVPDRFSGSKSGTSASLAITGVQAEDEADYYCQSYDSGFTGSRVFGTGTKVTVL
5.37 | L3.3R3M-A3 (scFv, V domains shown, scFv clone) VH: QVQLVQSGGGVVQPGRSLRLSCAASGFTFSSYGMHWVRQAPGKGLEWVAFIRYDGSNKYYADSVKGRFTISRDNSKNTLYLQMKSLRAEDTAVYYCKTHGSHDNWGQGTMVTVSS VL: SYVLTQPPSVSGTPGQRVTISCSGGRSNIGSNTVKWYQQLPGTAPKLLIYGNDQRPSGVPDRFSGSKSGTSASLAITGVQAEDEADYYCQSYDRGFTGSMVFGTGTKVTVL
